According to US20120058906A1 (published 2012):

Key:
[1] = molecular target: T1, rHuman ErbB2/Fc Chimera, CF (R&D Systems Cat#1129-ER) (human, UniProt P04626 23-652); test: ECL (MSD Multi-Spot) binding, antigen spotted on plate; Fab 500 nM;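 further: blank spot per well as comparator with Hit at signal to blank ratio of 4 or more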
T1 construct: Bought Fc chimera; also called human epidermal growth factor 2 receptor; HER2/neu; Fc part of the bought chimera not given

[2] = molecular target: T2, Recombinant Human DLL4 (R&D Systems Cat#1506-D4/CF) (human, UniProt Q9NR61 27-524); test: as above
T2 construct: Bought recombinant protein; also called delta-like protein 4

[3] = molecular target: T3, rHuman HGF R/c-MET/Fc Chimera, CF (R&D Systems Cat#358-MT/CF) (human, UniProt P08581 25-932); test: as above
T3 construct: Bought Fc chimera; also called HGF R/Fc; hepatocyte growth factor receptor; Fc part of the bought chimera not given

[4] = molecular target: T4, rHuman IGF-1 sR, CF (R&D Systems Cat#391-GR) (human, UniProt P08069 31-932); test: as above
T4 construct: Bought soluble receptor; also called insulin-like growth factor-1 soluble receptor; IGF-R1

[5] = molecular target: T5, rHuman EGF R/Fc Chimera, CF (R&D Systems Cat#344-ER) (human, UniProt P00533 25-645); test: as above
T5 construct: Bought Fc chimera; also called epidermal growth factor receptor; Fc part of the bought chimera not given

[6] = molecular target: T1, rHuman ErbB2/Fc Chimera, CF (R&D …); test: ECL (MSD Multi-Spot) binding, antigen spotted on plate; Fab 5 nM;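 further: blank spot per well as comparator with Hit at signal to blank ratio of 4 or more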
[7] = molecular target: T2, Recombinant Human DLL4 (R&D Systems …); test: as above
[8] = molecular target: T3, rHuman HGF R/c-MET/Fc Chimera, CF (R&D …); test: as above
[9] = molecular target: T4, rHuman IGF-1 sR, CF (R&D Systems …); test: as above
[10] = molecular target: T5, rHuman EGF R/Fc Chimera, CF (R&D …); test: as above
[11] = molecular target: T1, rHuman ErbB2/Fc Chimera, CF (R&D …); test: ECL (MSD Multi-Spot) binding, antigen spotted on plate; Fab 50 nM;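 further: blank spot per well as comparator with Hit at signal to blank ratio of 4 or more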
[12] = molecular target: T2, Recombinant Human DLL4 (R&D Systems …); test: as above
[13] = molecular target: T3, rHuman HGF R/c-MET/Fc Chimera, CF (R&D …); test: as above
[14] = molecular target: T4, rHuman IGF-1 sR, CF (R&D Systems …); test: as above
[15] = molecular target: T5, rHuman EGF R/Fc Chimera, CF (R&D …); test: as above
[16] = molecular target: T6, Recombinant Human DLL4 (delta-like protein 4) (human, UniProt Q9NR61 27-524); test: SPR, Fab on recombinant human DLL4; standard deviation in parentheses
T6 construct: Bought (R&D Systems Cat#1506-D4/CF); also called rHuman DLL4

[17] = molecular target: T6, Recombinant Human DLL4 (delta-like …); test: SPR, Fab on recombinant human DLL4

B1: Fab VH1-46_IGHD6-6*01_IGHJ1*01_S102A_S103P_S104F_H111F & L6_IGKJ1*01 (Fab, V domains shown)
VH: QVQLVQSGAEVKKPGASVKVSCKASGYTFTSYYMHWVRQAPGQGLEWMGIINPSGGSTSYAQKFQGRVTMTRDTSTSTVYMELSSLRSEDTAVYYCAREEYAPFSAEYFQFWGQGTLVTVSS
VL: not shown
notes: Fab made in E. coli; The heavy chain also carries the CH1 with Flag and His tags of Plasmid A, and the light chain the kappa constant region of Plasmid C
[1]
  ECL signal: 2620
[2]
  ECL signal: 29900
[3]
  ECL signal: 2040
[4]
  ECL signal: 1870
[5]
  ECL signal: 2510
[6]
  ECL signal: 1380
[7]
  ECL signal: 150000
[8]
  ECL signal: 1020
[9]
  ECL signal: 917
[10]
  ECL signal: 1160
[11]
  ECL signal: 2110
[12]
  ECL signal: 94200
[13]
  ECL signal: 1280
[14]
  ECL signal: 1230
[15]
  ECL signal: 2040

B2: Fab VH5-51_IGHD5-18*01>3_IGHJ4*01_G100K_G104T & V3-4_IGLJ1*01 (Fab, V domains shown)
VH: EVQLVQSGAEVKKPGESLKISCKGSGYSFTSYWIGWVRQMPGKGLEWMGIIYPGDSDTRYSPSFQGQVTISADKSISTAYLQWSSLKASDTAMYYCARRKYSYTYDYFDYWGQGTLVTVSS
VL: QTVVTQEPSFSVSPGGTVTLTCGLSSGSVSTSYYPSWYQQTPGQAPRTLIYSTNTRSSGVPDRFSGSILGNKAALTITGAQADDESDYYCVLYMGSGISYVFGTGTKVTVL
notes: Modified anti-DLL4 Fab; lambda Plasmid E)
[16]
  Kd: 0.355 µM
  kon: 64500 M⁻¹ s⁻¹
[17]
  koff: 0.023 s⁻¹
